Assays:
[1] = target: T1, 重组人4-1BB蛋白(ACRO，货号41B-H5227) (human, UniProt Q07011 24-186); test: SPR (BIAcore), antibody captured on Protein A on a CM5 chip, 4-1BB 20nM-0.31nM as analyte
T1 construct: Bought recombinant protein; also called 4-1BB抗原; TNFRSF9

[2] = target: 人4-1BB on HEK293/Human4-1BB细胞 (human, UniProt Q07011 24-255); test: cell-based or functional assay
人4-1BB on HEK293/Human4-1BB细胞, sequence (Q07011 24-255): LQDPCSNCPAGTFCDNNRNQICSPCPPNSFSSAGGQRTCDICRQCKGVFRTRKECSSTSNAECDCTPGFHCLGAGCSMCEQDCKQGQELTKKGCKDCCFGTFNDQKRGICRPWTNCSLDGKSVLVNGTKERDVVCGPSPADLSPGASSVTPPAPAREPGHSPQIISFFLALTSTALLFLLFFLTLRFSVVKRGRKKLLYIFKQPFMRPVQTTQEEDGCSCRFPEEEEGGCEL

B1: 抗人4-1BB的单克隆抗体MC03 (antibody, human IgG2, kappa, V domains shown)
VH: EVQLVQSGAEVKKPGATVKISCKASGFNIKDYYIHWVNQAPGKGLEWIGRIDPEDGDIAYAPKFQDRVTLTVDTSTDTAYLELSSLRSEDTAVYYCTTGNYYAMDFWGQGTTVTVSS
VL: QIVLTQSPATLSASPGERVTLSCTASSSVSSSYLHWYQQKPGSSPKLWIYSTSNLASGVPARFSGSGPGTSYTLTISSMEPEDAATYYCHQYHRSPPTFGQGTKLEIKR
notes: Obtained according to PCT/US2020/012080; The isotype control used is human IgG2; also called huG28.21.G2.1.4
**Q.** Which Kd [1] does the source give for B1 here?
**A.** 0.918 nM

**Q.** And the “NF-κB报告基因发光值(RLU) EC50” value [2]?
**A.** 7.69 ng/mL

— CN113842456A (QILU PHARMACEUTICAL CO LTD, dated 2021)
